Test results reported in patent publication US20220073604A1 (ARGENX BVBA, published 2022).
Where “and” joins values, the source holds several entries; their conditions need not be identical. Equal values may be shown once.

Experiments:
[1] = molecular target: IL-6 surfaces of Table 8 (Bact, euk, cyno), average; assay: SPR (Biacore), off-rate screen
[2] = molecular target: T1, bacterially produced human IL-6 (human, UniProt P05231 30-212); assay: SPR; periplasmic fraction
T1 construct: also called bactIL-6; prokaryotic IL-6
Method: (§1) From the washing phase the off-rate (kd) was determined, while from the injection phase the on-rate (ka) was calculated using the concentration and off-rate as parameters.

[3] = molecular target: T2, eukaryotically produced human IL-6 (human, UniProt P05231 30-212); assay: SPR; periplasmic fraction
T2 construct: also called eukIL-6; Euk IL-6
Method: as §1

[4] = molecular target: T1, bacterially produced human IL-6; assay: SPR; periplasmic fraction; ratio bact to euk IL-6
Method: as §1

human IL-6 = molecular target: T3, human IL-6 (human, UniProt P05231 30-212); assay: SPR; periplasmic fraction; average of the IL-6 channels; parameters: unit not given here
T3 construct: Used where the text says only IL-6 or human IL-6 (crystals: rh IL-6 from Immunotools; cell assays) and for values averaged over the bacterial and eukaryotic IL-6 channels; also called interleukin-6; rh IL-6

[5] = molecular target: T4, bacterially produced human IL-6 (human, UniProt P05231 30-212); assay: SPR (Biacore), purified Fab
T4 construct: Immobilised on the Biacore chip; also called BACT IL-6 (2-1); bactIL-6

[6] = molecular target: T5, eukaryotically produced human IL-6 (human, UniProt P05231 30-212); assay: SPR (Biacore), purified Fab
T5 construct: Immobilised on the Biacore chip; also called Euk IL-6; EUK IL-6 (3-1)

[7] = molecular target: T1, bacterially produced human IL-6; assay: SPR; purified Fab; IL-6 coated on CM5 chip;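 also: dissociation rate taken from the wash phase, association rate fitted over the injection phase with analyte concentration and dissociation rate as inputs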
Method: as §1

[8] = molecular target: T2, eukaryotically produced human IL-6; assay: SPR; purified Fab; IL-6 coated on CM5 chip;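 also: dissociation rate taken from the wash phase, association rate fitted over the injection phase with analyte concentration and dissociation rate as inputs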
Method: as §1

[9] = molecular target: IL-6 (bact-hIL-6, euk-hIL-6 and bact-cy IL-6; 'average binding' of Table 21); assay: average binding level in the off-rate screen (unit not given; n = 1)
[10] = molecular target: T6, bacterially produced cynomolgus monkey IL-6 (cynomolgus monkey, UniProt P79341 28-212, limits assumed); assay: off-rate of Fab 111A7 variant on bact-cy IL-6 (binding kinetics, SPR presumed; n = 1)
T6 construct: also called bact-cy IL-6; HIS-cyIL-6

[11] = molecular target: IL-6 (bact-hIL-6, euk-hIL-6 and bact-cy IL-6; 'average binding' of Table 21); assay: average binding level in the off-rate screen (unit not given; n = 3)
[12] = molecular target: T6, bacterially produced cynomolgus monkey …; assay: off-rate of Fab 111A7 variant on bact-cy IL-6 (binding kinetics, SPR presumed; n = 3)
[13] = molecular target: human IL-6 (as added in the B9 and 7TD1 bioassays) (human) (UniProt P05231)
[14] = molecular target: human IL-6 (as added in the B9 and 7TD1 bioassays) (human) (UniProt P05231); assay: cell-based or functional assay

B1: 61H7 (Fab, V domains shown)
VH: EVQLVESGGGLVQPGGSLRLSCAASGFTFSSYRMYWVRQPPGKGLEWVSAISAGGGSTYYGDSVKGRFTISRDNAKNTVYLQMNSLKPEDTAVYYCANRAGWGMGDYWGQGTQVTVSS
VL: QTVVTQEPSLSVSPGGTVTLTCGLSSGSVTASNYPGWFQQTPGQAPRALIYSTNDRHSGVPSRFSGSISGNKAALTITGAQPEDEADYYCALDIGDITEFGGGTHLTVLG
Average binding (RU) [1]: 635 RU

B2: Fab 24G3 (Fab, V domains shown)
VH: QLQVVESGGGLVQPGSSLRLSCGASGFTFSSHRMYWVRQPPGKGLEWVSAISSSGVSTYYADSVKGRFTISRDNAKNTVYLQMNSLKPEDTALYYCKRRTWYGGEYDYWGQGTQVTVSS
VL: QTVVTQEPSLSVSPGGTVTLTCGLSSGSVTASNYPGWFQQTPGQAPRALIYSTNDRHSGVPSRFSGSISGNKAALTITGAQPEDEADYYCALDIGDITEFGGGTHLTVLG
notes: Fab; also called 28g12(24G3)
koff [2]: 0.000112 s⁻¹
koff [3]: 7.52e-05 s⁻¹
ratio bact/euk [4]: 0.96
average binding (human IL-6): 46

B3: 61B7 (Fab, V domains shown)
VH: ELQLVESGGGLVQPGGSLRLSCAASGFTFSSYAMSWVRQAPGKGPEWVSRISSGGGSAYYADSVKGRFTISRDNAKNTLYLQMNSLKPEDTAVYYCANRAGWGMGDYWGQGTQVTVSS
VL: QTVVTQEPSLSVSPGGTVTLTCGLSSGSVTASNYPGWFQQTPGQAPRALIYSTNDRHSGVPSRFSGSISGNKAALTITGAQPEDEADYYCALDIGDITEFGGGTHLTVLG
notes: Fab
Average binding (RU) [1]: 597 RU
Kd [5]: 0.16 nM
koff [5]: 5.7e-05 s⁻¹
kon [5]: 350000 M⁻¹ s⁻¹
Kd [6]: 0.2 nM
koff [6]: 6.6e-05 s⁻¹
kon [6]: 330000 M⁻¹ s⁻¹

B4: Fab 28B6 (Fab, V domains shown)
VH: QVQLVESGGGLVQPGGSLRLSCAASGFTFSNYYMTWVRQAPGKGLEWVSSIYSFSGDTAYADSVKGRFTISRDNAKNTLYLQMNSLKSEDTAVYYCTRNLGGVVVTTNGYDYWGQGTQVTVSS
VL: DIQLTQSPSSLSASLGDRVTITCQASQSISTELSWYQQKPGQTPKLLIYGASRLQTGVPARFSGSGSGTSFTLTISGLEAEDLATYYCLQDYSWPYSFGSGTRL
notes: Fab; also called 28f3(28B6)
koff [2]: 7.71e-05 s⁻¹
koff [3]: 3.5e-05 s⁻¹
ratio bact/euk [4]: 1
average binding (human IL-6): 43

B5: Fab 24A3 (Fab, V domains shown)
VH: QVQVQESGGGLVQPGGSLRLSCAASGFTFSNYAMSWVRQAPGKGLEWVSGISFRGGMISYVDSVKGRFTISRDNAKNTLYLQMNSLKPEDTAVYYCAKNSGSSRSNALDAWGQGTLVTVSS
VL: LNFMLTQPPSVSGSPGQKFTIRCTGSFRSDSYVNWYQQLPGTAPKLLINYDDRRVSGVPSRFSGSKSGNSASLTIDGLQAEDEAEYYCSFWDHTFGGHVFGGGTKLTVLG
notes: Fab; also called 28f10(24A3)
koff [2]: 8.42e-05 s⁻¹
koff [3]: 7.6e-05 s⁻¹
Kd [7]: 0.22 nM
koff [7]: 4.8e-05 s⁻¹
Kd [8]: 0.59 nM
koff [8]: 0.00011 s⁻¹
ratio bact/euk [4]: 1.2
average binding (human IL-6): 286

B6: Fab 111A7 with the CDR3 methionine changed to C (Fab, V domains shown)
VH: EVQLLESGGGLVQPGGSLRLSCAASGFTFSSYAMSWVRQAPGKGPEWVSRISAGGGSTYYGDSVKGRFTISRDNSKNTLYLQMNSLRAEDTAVYYCANRAGWGCGDYWGQGTLVTVSS
VL: QTVVTQEPSFSVSPGGTVTLTCGLSSGSVTASNYPGWYQQTPGQAPRALIYSTNDRHSGVPDRFSGSISGNKAALTITGAQAEDEADYYCALDIGDITEFGGGTQLTVL
average binding [9]: 42
koff [10]: 9.46e-05 s⁻¹

B7: Fab 111A7 with the CDR3 methionine changed to G (Fab, V domains shown)
VH: EVQLLESGGGLVQPGGSLRLSCAASGFTFSSYAMSWVRQAPGKGPEWVSRISAGGGSTYYGDSVKGRFTISRDNSKNTLYLQMNSLRAEDTAVYYCANRAGWGGGDYWGQGTLVTVSS
VL: QTVVTQEPSFSVSPGGTVTLTCGLSSGSVTASNYPGWYQQTPGQAPRALIYSTNDRHSGVPDRFSGSISGNKAALTITGAQAEDEADYYCALDIGDITEFGGGTQLTVL
average binding [11]: 109
koff [12]: 0.000205 s⁻¹

B8: Fab 111A7 with the CDR3 methionine changed to D (Fab, V domains shown)
VH: EVQLLESGGGLVQPGGSLRLSCAASGFTFSSYAMSWVRQAPGKGPEWVSRISAGGGSTYYGDSVKGRFTISRDNSKNTLYLQMNSLRAEDTAVYYCANRAGWGDGDYWGQGTLVTVSS
VL: QTVVTQEPSFSVSPGGTVTLTCGLSSGSVTASNYPGWYQQTPGQAPRALIYSTNDRHSGVPDRFSGSISGNKAALTITGAQAEDEADYYCALDIGDITEFGGGTQLTVL
average binding [11]: 112
koff [12]: 0.000234 s⁻¹

B9: Fab 111A7 with the CDR3 methionine changed to R (Fab, V domains shown)
VH: EVQLLESGGGLVQPGGSLRLSCAASGFTFSSYAMSWVRQAPGKGPEWVSRISAGGGSTYYGDSVKGRFTISRDNSKNTLYLQMNSLRAEDTAVYYCANRAGWGRGDYWGQGTLVTVSS
VL: QTVVTQEPSFSVSPGGTVTLTCGLSSGSVTASNYPGWYQQTPGQAPRALIYSTNDRHSGVPDRFSGSISGNKAALTITGAQAEDEADYYCALDIGDITEFGGGTQLTVL
average binding [9]: 64
koff [10]: 0.000121 s⁻¹

B10: Fab 111A7 with the CDR3 methionine changed to K (Fab, V domains shown)
VH: EVQLLESGGGLVQPGGSLRLSCAASGFTFSSYAMSWVRQAPGKGPEWVSRISAGGGSTYYGDSVKGRFTISRDNSKNTLYLQMNSLRAEDTAVYYCANRAGWGKGDYWGQGTLVTVSS
VL: QTVVTQEPSFSVSPGGTVTLTCGLSSGSVTASNYPGWYQQTPGQAPRALIYSTNDRHSGVPDRFSGSISGNKAALTITGAQAEDEADYYCALDIGDITEFGGGTQLTVL
average binding [9]: 81
koff [10]: 0.00417 s⁻¹

B11: Fab 111A7 with the CDR3 methionine changed to N (Fab, V domains shown)
VH: EVQLLESGGGLVQPGGSLRLSCAASGFTFSSYAMSWVRQAPGKGPEWVSRISAGGGSTYYGDSVKGRFTISRDNSKNTLYLQMNSLRAEDTAVYYCANRAGWGNGDYWGQGTLVTVSS
VL: QTVVTQEPSFSVSPGGTVTLTCGLSSGSVTASNYPGWYQQTPGQAPRALIYSTNDRHSGVPDRFSGSISGNKAALTITGAQAEDEADYYCALDIGDITEFGGGTQLTVL
average binding [9]: 137
koff [10]: 0.000207 s⁻¹

B12: Fab 111A7 with the CDR3 methionine changed to Y (Fab, V domains shown)
VH: EVQLLESGGGLVQPGGSLRLSCAASGFTFSSYAMSWVRQAPGKGPEWVSRISAGGGSTYYGDSVKGRFTISRDNSKNTLYLQMNSLRAEDTAVYYCANRAGWGYGDYWGQGTLVTVSS
VL: QTVVTQEPSFSVSPGGTVTLTCGLSSGSVTASNYPGWYQQTPGQAPRALIYSTNDRHSGVPDRFSGSISGNKAALTITGAQAEDEADYYCALDIGDITEFGGGTQLTVL
average binding [11]: 104
koff [12]: 0.000158 s⁻¹

B13: Fab 111A7 with the CDR3 methionine changed to W (Fab, V domains shown)
VH: EVQLLESGGGLVQPGGSLRLSCAASGFTFSSYAMSWVRQAPGKGPEWVSRISAGGGSTYYGDSVKGRFTISRDNSKNTLYLQMNSLRAEDTAVYYCANRAGWGWGDYWGQGTLVTVSS
VL: QTVVTQEPSFSVSPGGTVTLTCGLSSGSVTASNYPGWYQQTPGQAPRALIYSTNDRHSGVPDRFSGSISGNKAALTITGAQAEDEADYYCALDIGDITEFGGGTQLTVL
average binding [9]: 26
koff [10]: 0.000177 s⁻¹

B14: Fab 111A7 with the CDR3 methionine changed to F (Fab, V domains shown)
VH: EVQLLESGGGLVQPGGSLRLSCAASGFTFSSYAMSWVRQAPGKGPEWVSRISAGGGSTYYGDSVKGRFTISRDNSKNTLYLQMNSLRAEDTAVYYCANRAGWGFGDYWGQGTLVTVSS
VL: QTVVTQEPSFSVSPGGTVTLTCGLSSGSVTASNYPGWYQQTPGQAPRALIYSTNDRHSGVPDRFSGSISGNKAALTITGAQAEDEADYYCALDIGDITEFGGGTQLTVL
average binding [9]: 144
koff [10]: 0.000203 s⁻¹

B15: B-E8 (IL-6 neutralizing benchmark antibody) (antibody, from another filing, V domains shown)
VH: QVTLKESGPGILKPSQTLSLTCSFSGFSLSTSGMGVGWIRQPSGKGLEWLAHIWWDDDKYYNPSLKSQLTISKDTSRNQVFLKITSVDTADTATYYCARSYDDYLYYALDYWGQGTSVTVSS
VL: DIVMTQSPATLSVTPGDRVSLSCRASQSISDYLHWYQQKSHESPRLLIKSVSQSISGIPSRFSGSGSGSDFTLSINSVEPEDVGVYYCQNGHSFPLTFGAGTKLELK
IC50 (read off the curve), B9 cell proliferation [13]: 0.008 nM
IC 50, B9 cell proliferation [14]: 0.00511 nM
Rel. potency, B9 cells [14]: 0.2

B16: 55H1 (Fab, V domains shown)
VH: EVQLVESGGGLVQPGGSLRLSCAASGFTFSSYAMSWVRQAPGKGLEWVSRISSGGISTYYADSVKGRFTISRDNAKNTLYLQMNSLKPEDTAVYYCVRYAWGVQWAFDFWGQGTQVTVSS
VL: AQSVVTQPPSVSGSPGKTVTISCAGTSSDVGYGNYVSWYQQLPGMAPKLLIYDVSKRASGIADRFSGSKSGNTASLTISGLQSEDEADYVCASYRRGGTAVFGGGTHLTVLG
Average binding (RU) [1]: 773 RU and 770 RU and 873 RU
